{"source": "patent US12084521B2", "about": "“TLR9 inhibitors to suppress inflammatory response to pathogens” (University Of Maryland, Baltimore, priority 2018, dated 2024)", "key": {"TRAM-Cer": {"target": "T1, TRAM-Cer (Homo sapiens, UniProt Q86XR7)", "T1 construct": "expressed in transfected cells; host or cells: HeLa", "T1 sequence (Q86XR7 whole entry)": "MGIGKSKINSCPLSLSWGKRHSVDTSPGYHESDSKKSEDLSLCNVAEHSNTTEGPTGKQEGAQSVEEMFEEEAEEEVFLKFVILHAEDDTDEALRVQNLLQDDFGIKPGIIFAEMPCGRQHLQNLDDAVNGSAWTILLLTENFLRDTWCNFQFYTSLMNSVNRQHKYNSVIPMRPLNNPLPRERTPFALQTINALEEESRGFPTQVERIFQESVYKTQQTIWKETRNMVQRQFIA", "test": "FLIM/FRET control construct in HeLa cells", "type": "binding", "conditions": "peptide 40 μM", "procedure": "(§1) Three million HeLa cells were transfected with 10 μg of MyD88-Cer, TIRAP-Cer, TRAM-Cer, TLR2-Cer, TLR4 TIR-Cer, or TLR9 TIR-Cer expression vectors using a Lipofectamine™ 3000 kit from Invitrogen™ per manufacturer recommendations. Twenty four hours later, the transfected cells were trypsinized and reseeded into a 50-well gasket (Grace Bio-Labs™) mounted on a microscope slide at the density 8000 cells/well. The next day, cells were treated with Cy3-9R34-ΔN or Cy3-9R11 for 1 hour and fixed on the slides with a 4% paraformaldehyde solution.\n(§2) Fluorescence lifetime images were acquired using the Alba V FLIM™ system (ISS™ Inc.). The excitation was from the laser diode 443 nm coupled with scanning module (ISS™) through multiband dichroic filter 443/532/635 nm (Semrock™) to Olympus™ IX71S microscope with objective 20×0.45 NA (UPlan™ Olympus™). Emission was observed through bandpass filter […] (Chroma Technology™) and detected by a photomultiplier H7422-40 (Hamamatsu™). Measurements were performed using frequency domain (FD) and time domain (TD) modalities of the FLIM system. FD FLIM data were acquired using ISS™ A320 FastFLIM™ electronics with n harmonics of 20 MHz laser repetition frequency (n=1, 2, 3, 4, 5, 6). FastFLIM™ was calibrated using fluorescein in buffer pH 8.0 as a standard with a single lifetime of 4.0 ns. TD FLIM images were acquired using time-correlated single photon counting TCSPC™ Model SPC-830 (Becker & Hick™).\n(§3) Images (256×256 pixels) were acquired with resolution varied in the range ˜0.4-0.7 μm/pixel, using scan speed 1 ms/pixel. To avoid pixel intensity saturation in bright cells and to improve the signal from dim cells, two to five overlapping scans were used for acquisition of FLIM images. Image sizes varied from 100×100 to 180×180 μm to accommodate multiple cells. FLIM data were analyzed with VistaVision™ Suite software (Vista™ v.212 from ISST). Fluorescence lifetime was determined using single- and bi-exponential intensity decay models. Average lifetime images were generated based on pixel-by-pixel analysis using the combined signal of two neighboring pixels in all directions (bin 2=25 pixels). The binning was used to improve the signal for analysis. The average lifetimes were calculated from fitted parameters, decay times τi and amplitudes αi, τa=Σαiτi. The bi-exponential fitting procedure was performed with one lifetime component fixed at 3.1 nsec, which was found common for most images. To calculate the effective FRET efficiency (E), average lifetimes of the donor only images (τD) and donor-acceptor images (τDA) were used, E=1−τDA/τD.\n(§4) TLR9, MyD88, and TIRAP were selected as potential primary binding partners for Cy3-9R34-ΔN and Cy3-9R11. Cer-fused TLR2 and TLR4 TIR domains, and Cer not fused to a TIR, were used as controls. […] Therefore, the TIRAP-Cer with Cy3-2R9 was used as a positive binding control. Binding of Cy3-labeled CPDPs to Cerulean- (Cer-) labeled TIR domains was tested as follows. Fluorescence Lifetime IMages (FLIM) were made of HeLa cells expressing Cer not fused with a TIR domain (upper row) or fused with TLR9 TIR or TIRAP TIR (middle and bottom rows) and treated with a Cy3-labeled decoy peptide for 1 hour."}, "TLR2 TIR-Cer": {"target": "T2, TLR2 TIR-Cer (Homo sapiens, UniProt O60603)", "T2 construct": "Cer-fused TLR2 and TLR4 TIR domains; expressed in transfected cells; host or cells: HeLa", "T2 sequence (O60603 639-782 limits assumed)": "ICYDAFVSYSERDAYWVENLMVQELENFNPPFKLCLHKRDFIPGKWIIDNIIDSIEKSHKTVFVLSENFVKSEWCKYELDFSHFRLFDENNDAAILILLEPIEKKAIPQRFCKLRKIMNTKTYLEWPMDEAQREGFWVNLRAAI", "test": "FLIM/FRET control construct in HeLa cells", "type": "binding", "conditions": "peptide 40 μM", "procedure": "as §1, §2, §3, §4"}, "TLR4 TIR-Cer": {"tested_on": "TLR4 TIR-Cer", "test": "FLIM/FRET control construct in HeLa cells", "type": "binding", "conditions": "peptide 40 μM", "procedure": "as §1, §2, §3, §4"}, "[1]": {"tested_on": "Cer not fused to a TIR domain", "test": "FLIM/FRET control construct in HeLa cells", "type": "binding", "conditions": "peptide 40 μM", "procedure": "as §1, §2, §3, §4"}, "TIRAP TIR": {"target": "T3, TIRAP TIR (Homo sapiens, UniProt P58753)", "T3 construct": "fused with TLR9 TIR or TIRAP TIR; expressed in transfected cells; host or cells: HeLa", "T3 sequence (P58753 84-213 limits assumed)": "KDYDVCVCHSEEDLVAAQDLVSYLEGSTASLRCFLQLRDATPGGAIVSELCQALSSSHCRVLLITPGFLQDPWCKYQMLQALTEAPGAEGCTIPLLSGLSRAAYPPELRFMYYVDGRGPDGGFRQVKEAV", "test": "FLIM/FRET binding of Cy3-labeled peptides to Cer-fused TIR in HeLa cells", "procedure": "as §1, §2, §3\n(§5) To identify potential binding partners of inhibitory peptides a FRET approach coupled with Fluorescence Lifetime Imaging Microscopy (FLIM) was used. HeLa cells were transiently transfected with an expression vector that encodes a TIR domain fused with Cerulean fluorescent protein (Cer). Cells were treated with various concentrations of a Cy3-labeled inhibitory peptide 48 hours after transfection. Cy3 is a suitable FRET acceptor for Cer fluorescence. A direct molecular interaction of a Cy3-labeled peptide with Cer-fused TIR domain should quench Cer fluorescence, leading to a decreased fluorescence lifetime.\nas §4\n(§6) A progressive shift of average fluorescence lifetime towards lower values observed with increasing peptide concentrations indicates the binding between donor and acceptor moieties. […]"}, "TLR9 TIR": {"target": "T4, TLR9 TIR (Homo sapiens, UniProt Q9NR96)", "T4 construct": "expressed in transfected cells; host or cells: HeLa", "T4 sequence (Q9NR96 868-1013 limits assumed)": "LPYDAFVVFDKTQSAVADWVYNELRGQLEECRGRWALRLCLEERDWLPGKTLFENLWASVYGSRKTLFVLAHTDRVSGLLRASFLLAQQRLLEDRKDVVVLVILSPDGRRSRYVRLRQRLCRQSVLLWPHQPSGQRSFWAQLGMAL", "test": "FLIM/FRET binding of Cy3-labeled peptides to Cer-fused TIR in HeLa cells", "procedure": "as §1, §2, §3, §5, §4, §6"}, "MyD88 TIR": {"target": "T5, MyD88 TIR (Homo sapiens, UniProt Q99836)", "T5 construct": "expressed in transfected cells; host or cells: HeLa", "T5 sequence (Q99836 159-293 limits assumed)": "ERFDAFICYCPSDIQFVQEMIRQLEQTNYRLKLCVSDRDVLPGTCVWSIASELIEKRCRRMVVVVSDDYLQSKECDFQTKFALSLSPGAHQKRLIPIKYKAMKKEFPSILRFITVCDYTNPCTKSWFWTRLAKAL", "test": "FLIM/FRET binding of Cy3-labeled peptides to Cer-fused TIR in HeLa cells", "procedure": "as §1, §2, §3, §5, §4, §6"}}, "note": "No end group written: not given here. Cy3 = Cy3 fluorescent dye label", "data": [{"substance": "Cy3-9R34-ΔN: Cy3-labeled 9R34-ΔN peptide, Cy3 label placed at the peptide N-terminus (Cy3-RQIKIWFQNRRMKWKKALRLCLEERD)", "values": [{"measurement": "fluorescence lifetime of control TRAM-Cer", "setting": "TRAM-Cer", "value": "slightly affected"}, {"measurement": "fluorescence lifetime of control TLR2 TIR-Cer", "setting": "TLR2 TIR-Cer", "value": "slightly affected"}, {"measurement": "fluorescence lifetime of control TLR4 TIR-Cer", "setting": "TLR4 TIR-Cer", "value": "slightly affected"}, {"measurement": "fluorescence lifetime of Cer not fused to a TIR domain (unspecific quenching)", "setting": "[1]", "value": "slightly affected"}, {"measurement": "effect on TIRAP-Cer fluorescence at the lowest peptide concentration", "setting": "TIRAP TIR; 2.5 μM", "value": "absence of the effect"}, {"measurement": "quenching of TIRAP-Cer fluorescence", "setting": "TIRAP TIR; HeLa cells, Cy3-peptide 2.5-40 μM, 1 hour", "value": "notably quenched"}, {"measurement": "FRET efficiency, TLR9 TIR-Cer", "setting": "TLR9 TIR; HeLa cells, Cy3-peptide 2.5-40 μM, 1 hour, dose-dependent", "value": "9-23%"}, {"measurement": "fluorescence lifetime of TLR9 TIR-Cer construct", "setting": "TLR9 TIR; minimal peptide concentration 2.5 μM", "value": "decreased"}, {"measurement": "quenching of MyD88 TIR-Cer", "setting": "MyD88 TIR; peptide 40 μM, considerably less than on TLR9 and TIRAP TIR-Cer", "value": "notable"}, {"measurement": "average fluorescence lifetime of Cer-labeled MyD88 TIR", "setting": "MyD88 TIR; peptide 2.5 and 10 μM", "value": "not affected"}]}]}
